Results on three variants are retold here after publication PMC11863153, “Mechanistic Insights Into Oxidative Response of Heat Shock Factor 1 Condensates” (JACS Au, 2025).

B1: Heat shock factor 1 (Hsf1) wild-type [human] / itself (parent)
chain: MDLPVGPGAAGPSNVPAFLTKLWTLVSDPDTDALICWSPSGNSFHVFDQGQFAKEVLPKYFKHNNMASFVRQLNMYGFRKVVHIEQGGLVKPERDDTEFQHPCFLRGQEQLLENIKRKVTSVSTLKSEDIKIRQDSVTKLLTDVQLMKGKQECMDSKLLAMKHENEALWREVASLRQKHAQQQKVVNKLIQFLISLVQSNRILGVKRKIPLMLNDSGSAHSMPKYSRQFSLEHVHGSGPYSAPSPAYSSSSLYAPDAVASSGPIISDITELAPASPMASPGGSIDERPLSSSPLVRVKEEPPSPPQSPRVEEASPGRPSSVDTLLSPTALIDSILRESEPAPASVTALTDARGHTDTEGRPPSPPPTSTPEKCLSVACLDKNELSDHLDAMDSNLDNLQTMLSSHGFSVDTSALLDLFSPSVTVPDMSLPDLDSSLASIQELLSPQEPPRPPEAENSSPDSGKQLVHYTAQPLFLLDPGSVDTGSNDLPVLFELGEGSYFSEGDGFAEDPTISLLTGSEPPKAKDPTVS

In the assay the parent is B1. Nature of the assay: nonreducing SDS-PAGE, quantification of higher-order oligomer bands. The note with it: with itself; purified Hsf1 mutants; means ± s.d. of three independent experiments; parent: 1; read off a plot.
Turning to chain 1 C153S, the ratio to parent is 0.46 AU.

With chain 1 C36S C103S, the ratio to parent was 1.1 AU.

With chain 1 C373S C378S, the ratio to parent stood at 1.4 AU.
